Test results taken from patent publication US5721126.

Biological target: T1, ScaI restriction endonuclease (Streptomyces caespitosus) (UniProt O52691)
T1 sequence: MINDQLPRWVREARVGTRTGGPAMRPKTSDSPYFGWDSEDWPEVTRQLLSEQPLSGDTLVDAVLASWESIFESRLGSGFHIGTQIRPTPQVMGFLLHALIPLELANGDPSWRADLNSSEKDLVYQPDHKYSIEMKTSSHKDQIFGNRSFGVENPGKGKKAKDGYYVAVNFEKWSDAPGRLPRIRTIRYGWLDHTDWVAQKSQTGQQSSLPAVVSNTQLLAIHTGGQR
Assay: cleavage_in_vitro
Details: diluted cell extract, 1 ug DNA, 37 C, 1 h

With lambda DNA (ScaI sites) as the substance, how does the activity (units/g wet cells) read?
Its activity (units/g wet cells) is 1e+06.
